Measured values taken from PMC3355655.

Substrate: O=P(O)(O)O[C@H]1[C@H](O)[C@@H](OP(=O)(O)O)[C@H](OP(=O)(O)O)[C@@H](OP(=O)(O)O)[C@H]1O
Assay: purified protein
Settings: Mg2+

B1: SHIP2 (SH2 (Src homology 2)-domain-containing inositol-phosphatase-2) (Homo sapiens) (protein)
chain: DEPDMISVFIGTWNMGSVPPPKNVTSWFTSKGLGKTLDEVTVTIPHDIYVFGTQENSVGDREWLDLLRGGLKELTDLDYRPIAMQSLWNIKVAVLVKPEHENRISHVSTSSVKTGIANTLGNKGAVGVSFMFNGTSFGFVNCHLTSGNEKTARRNQNYLDILRLLSLGDRQLNAFDISLRFTHLFWFGDLNYRLDMDIQEILNYISRKEFEPLLRVDQLNLEREKHKVFLRFSEEEISFPPTYRYERGSRDTYAWHKQKPTGVRTNVPSWCDRILWKSYPETHIICNSYGCTDDIVTSDHSPVFGTFEVGVTSQFISKKGLSKTSDQAYIEFESIEAIVKTASRTKFFIEFYSTCLEEYKKSFENDAQSSDNINFLKVQWSSRQLPTLKPILADIEYLQDQHLLLTVKSMDGYE
- Km: 215 ± 28 µM
